The data set is described as follows: protein stability index of a GFP-peptide fusion (GPS, HEK-293T) (PSI 1-6); higher = more stable.
The mark [1] stands for this setting: treatment: DMSO, c terminus: a fixed tail appended.
Where [2] appears, read: treatment: MLN4924 1 uM, 8 h, c terminus: a fixed tail appended.
Setting [3] is: treatment: DMSO, c terminus: native.
[4] abbreviates: treatment: MLN4924 1 uM, 8 h, c terminus: native.

± gives the standard deviation.
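Further: 24-mer peptide tiles fused after GFP, lentivirally expressed, FACS-sorted into six equal bins by GFP/DsRed ratio, decoded by Illumina sequencing, PSI is the read-weighted mean bin number.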

On to LAHLGRHMEALEIAANLENKATNT [C8orf76], for which the protein stability index is, setting by setting: under setting [1], 4.22 ± 0.17; under setting [2], 4.29 ± 0.37.
On to LAKTGEGSYGVVFKCRNKTSGQVV [CDKL4], for which the protein stability index runs as follows: under setting [1], 2.72 ± 0.31; under setting [2], 2.75 ± 0.2.
As for LALHPEAPGLYNHLPWQYHAGQGG [CCDC3], the protein stability index worked out at 3.2 ± 0.5 under setting [1] and 2.63 ± 0.28 under setting [2].
On to LALLLCAGQVTALPVNSPMNKGDT [CHGA], for which the protein stability index came out at 2.68 ± 0.83 under setting [1] and 2.59 ± 0.5 under setting [2].
On the same counts, the results for LASYLEKVRALEEANADLEVKIRD [KRT13] are 3.52 ± 0.22 and 3.56 ± 0.26.
Consider LCCAFSTDGSVLAAGTHDGSVYFW [WSB1], for which the protein stability index was 2.78 ± 0.78 under setting [1] and 2.45 ± 0.78 under setting [2].
Regarding LCEKAKEILTKESNVQEVRCPVTV [PPP2CA], the protein stability index runs as follows: under setting [1], 4.11 ± 0.32; under setting [2], 4.44 ± 0.19.
With LCPCLRSGIGSSQALGPSPPLFG [MYCL], the protein stability index came out at 2.54 ± 0.84 under setting [3] and 2.11 ± 0.26 under setting [4].
In the case of LDDEDDTSIGMPSLMYRSPPGAEE [RETREG3], the protein stability index under setting [1] came out at 5.44 ± 0.23 and the protein stability index under setting [2] was found to be 5.39 ± 0.26.
Turning to LDKSTTGVSEILLKTQMKMSLKCL [FEM1B], the protein stability index runs as follows: under setting [1], 2.6 ± 0.31; under setting [2], 2.17 ± 0.26.
On the same counts, the results for LEDELDKSVQGTGLAFIAFTEAMT [SLC6A17] are 2.73 ± 0.35 and 2.82 ± 0.51.
On to LEEFQLALKHYVESASSQSGCLRI [NECAB1], for which the protein stability index under setting [1] worked out at 2.21 ± 0.36 and the protein stability index under setting [2] was 2.16 ± 0.17.
Turning to LEETEPPLEPEDALSDAEFEGEGD [P3H4], the protein stability index is, setting by setting: under setting [1], 5.49 ± 0.33; under setting [2], 5.55 ± 0.17.
For LEKDFSIYGGELGPMMKLKRHFVA [ACSBG2], the protein stability index is, setting by setting: under setting [1], 2.23 ± 0.2; under setting [2], 2.26 ± 0.53.
The corresponding values for LEKGADVNRKSVKGNTALHDCAES [FEM1C] are 5.18 ± 0.29 and 5.38 ± 0.28.
The corresponding values for LELLVNNGADVNIQSKDGKSPLHM [ANKRD44] are 4.06 ± 0.23 and 4.01 ± 0.3.
LFAGPHSTLTPPCSPPEDGLCPH [SNX8]: the protein stability index stood at 3.79 ± 0.52 under setting [3] and 3.85 ± 0.22 under setting [4].
Regarding LFAPLKLQMEFKAVQQVQRLPFLS [POMP], the protein stability index by setting is: under setting [1], 2.51 ± 0.82; under setting [2], 2.46 ± 0.75.
In the case of LFQIDVYDFMNSAFSPIVILTERV [MIA2], the protein stability index by setting is: under setting [1], 2.75 ± 0.73; under setting [2], 3.06 ± 0.91.
In turn, LGAVAVFAVGYIKISWSTWGEMTL [SLC19A2] returned a protein stability index under setting [1] of 2.97 ± 0.68 and a protein stability index under setting [2] of 2.97 ± 0.73.
The corresponding values for LGCYAVYSLLYLEHKGWYSWVLSM [CLPTM1] are 3.04 ± 0.42 and 3.27 ± 0.65.
For the sequence LGGAAFLGTAIFIEADRRRAQLHV [SPNS1], the protein stability index reads like this: under setting [1], 2.35 ± 0.74; under setting [2], 2.32 ± 0.53.
As for LGKTEQGFENMDFFTLDLEHIADA [TRIM63], the protein stability index amounted to 3.85 ± 0.21 under setting [1] and 3.8 ± 0.12 under setting [2].
On to LGQDRQVPLWGQLLLFLVFVIVLF [EMD], for which the protein stability index is, setting by setting: under setting [1], 2.83 ± 0.58; under setting [2], 2.79 ± 0.76.
LGQEFDEVTADDRKVKSTITLDGG [FABP4] gave a protein stability index under setting [1] of 5.16 ± 0.21 and a protein stability index under setting [2] of 5.32 ± 0.33.
Regarding LGTPTSSTPRPSITPTKKIELDRT [C2CD2L], the protein stability index under setting [1] is 4.94 ± 0.18 and the protein stability index under setting [2] came to 4.88 ± 0.24.
For LHKFPYRMVPALPPKRMLGADREF [SNX8], the protein stability index runs as follows: under setting [1], 2.55 ± 0.15; under setting [2], 2.67 ± 0.32.
Turning to LHSLDDFYIGKYFGGVLEYFMIQA [RHOBTB3], the protein stability index came out at 2.78 ± 0.37 under setting [1] and 2.8 ± 0.63 under setting [2].
As for LHSQEDDDSSSESGSGNGSSTLNP [NOL4L], the protein stability index is 5.39 ± 0.2 under setting [1] and 5.48 ± 0.17 under setting [2].
Consider LIGLISDRLRRNWPPSFLSEFRAL [SPNS1], for which the protein stability index is 2.19 ± 0.35 under setting [1] and 2.1 ± 0.2 under setting [2].
As for LITIATFQIAANLSMERYALVFGV [SLC19A2], the protein stability index is, setting by setting: under setting [1], 3.02 ± 0.15; under setting [2], 3.12 ± 0.59.
In the case of LKEMYDADLLEEEVIISWSEKASK [EIF5], the protein stability index came to 3.33 ± 0.45 under setting [1] and 3.88 ± 0.44 under setting [2].
As to LKERCAQDACQAQAREKELLELQS [CCDC89], the protein stability index reads like this: under setting [1], 4.1 ± 0.26; under setting [2], 4 ± 0.51.
As for LKKPIKGKQAPRKKAQGKTQQNRK [KMT5A], the protein stability index amounted to 4.29 ± 0.2 under setting [1] and 4.45 ± 0.23 under setting [2].
LKLKNKLLQADREHLPVKPDTMEK [DENND6A] yielded a protein stability index under setting [1] of 4.35 ± 0.34 and a protein stability index under setting [2] of 4.33 ± 0.22.
Turning to LKLLNVLEEYITDEQKEEEEEEGE [FAM9B], the protein stability index under setting [1] was 4.94 ± 0.18 and the protein stability index under setting [2] was 4.93 ± 0.29.
As to LKLMDRHKKDCAREKPFKCQECGK [ZNF75A], the protein stability index worked out at 3.74 ± 0.37 under setting [1] and 3.95 ± 0.28 under setting [2].
On the same counts, the results for LKLQTKTIKVSYARPSSASIRDAN [ELAVL3] are 2.77 ± 0.37 and 2.91 ± 0.32.
The corresponding values for LKTSKMALSPSATAKRINRTSLSS [CDC14A] are 3.71 ± 0.26 and 3.54 ± 0.25.
With LLDIKTRLEQEIATYRSLLEGQDA [KRT13], the protein stability index amounted to 3.45 ± 0.19 under setting [1] and 3.51 ± 0.26 under setting [2].
The corresponding values for LLEDMRASEAFHWDERGRAAAYSP [ANKRD9] are 2.7 ± 0.44 and 3.18 ± 0.54.
Take LLGEETPMAADEGSAEKQAGEAHM [EHMT1]: the protein stability index is, setting by setting: under setting [1], 5.66 ± 0.31; under setting [2], 5.57 ± 0.38.
LLKAGADVNKTDHSQRTALHLAAQ [INVS]: the protein stability index under setting [1] is 4.11 ± 0.33 and the protein stability index under setting [2] came out at 4.09 ± 0.17.
In the case of LLKITIPNAFIGSDVVDWLYHNVE [DVL3], the protein stability index by setting is: under setting [1], 2.31 ± 0.63; under setting [2], 2.26 ± 0.28.
On to LLKTLYNSIKNEKLEWAIDEDELR [PSD2], for which the protein stability index is, setting by setting: under setting [1], 2.61 ± 0.43; under setting [2], 2.07 ± 0.32.
On the same counts, the results for LLRTARVRRECWFLPTALLCAYGF [SLC19A2] are 2.54 ± 0.8 and 2.54 ± 0.43.
Turning to LLYAQGLLAIQFLEFFYGIATATE [SLC19A2], the protein stability index runs as follows: under setting [1], 3.53 ± 0.64; under setting [2], 3.2 ± 0.037.
The corresponding values for LMFLDICSELNKLCQHFEAVHSGT [SPACA9] are 2.67 ± 0.72 and 2.4 ± 0.29.
For the sequence LNDRLASYLDKVRALEEANTELEV [KRT17], the protein stability index runs as follows: under setting [1], 4.03 ± 0.11; under setting [2], 4.17 ± 0.17.
Take LNELERLSNLVGKPSENHPLHNSG [MED27]: the protein stability index under setting [1] was 4.06 ± 0.25 and the protein stability index under setting [2] turned out to be 4.31 ± 0.24.
On the same counts, the results for LNPHIHLMGDESACIAYIRITQYL [CAMK2A] are 2.8 ± 0.44 and 2.71 ± 0.51.
Turning to LPACTLCAGPLEDAVTIPCGHTFC [TRIM15], the protein stability index was 3.818 ± 0.022 under setting [1] and 4.16 ± 0.35 under setting [2].
Turning to LPDELGSQLPQVLHVSLGQKLVAA [MOSPD3], the protein stability index runs as follows: under setting [1], 3 ± 0.34; under setting [2], 3.14 ± 0.089.
The corresponding values for LPHQSHRQRSSLAKINIVYQELNY [SCNN1D] are 2.54 ± 0.23 and 2.54 ± 0.3.
Take LPKPPGTPVVTESTATSITLTWDS [PTPRD]: the protein stability index reads like this: under setting [1], 3.88 ± 0.087; under setting [2], 3.88 ± 0.18.
Take LPPDVTTQSVMGFDPLPPSDTIYS [TCF25]: the protein stability index turned out to be 4.19 ± 0.16 under setting [1] and 4.37 ± 0.34 under setting [2].
For the sequence LPRKDYESLDYDRCINDPYLEVLE [CLCN6], the protein stability index worked out at 3.4 ± 0.24 under setting [1] and 3.58 ± 0.18 under setting [2].
On to LPSERWNPTQNVRTILLSVISLLN [CDC34], for which the protein stability index is, setting by setting: under setting [1], 3.53 ± 0.2; under setting [2], 3.58 ± 0.33.
On the same counts, the results for LQKLSALLMTADILAETGIRKTVK [ELOA2] are 2.48 ± 0.64 and 2.34 ± 0.45.
On the same counts, the results for LRNTLKSTSEDSLVKQECIKEVVE [FAN1] are 4.63 ± 0.3 and 5.01 ± 0.23.
Take LRQQQDEAYLASLRADQEKERKKR [FAF2]: the protein stability index runs as follows: under setting [1], 4.36 ± 0.57; under setting [2], 4.53 ± 0.4.
With LSASSPRMLHRSTQTTNDGVCQSM [ZMYND11], the protein stability index is, setting by setting: under setting [1], 4 ± 0.24; under setting [2], 4.34 ± 0.18.
With LSDEDDGFVDLLDGENLKNEEETP [CDC25A], the protein stability index stood at 5.48 ± 0.33 under setting [1] and 5.4 ± 0.31 under setting [2].
As for LSEVKPPPPPPPAQTFLFQGQPVV [TRADD], the protein stability index reads like this: under setting [1], 3.89 ± 0.38; under setting [2], 4.07 ± 0.2.
With LSFLDYRDLINCCYVSRRLSQLSS [FBXO3], the protein stability index was determined as 2.59 ± 0.18 under setting [1] and 2.14 ± 0.48 under setting [2].
As for LSLKRELSWYRGRRPRTAFTQNQI [HESX1], the protein stability index runs as follows: under setting [1], 2.41 ± 0.27; under setting [2], 2.66 ± 0.14.
Turning to LSPAGSSQEAADTPDTRHPCSLGS [YJU2B], the protein stability index is 5.24 ± 0.21 under setting [1] and 5.3 ± 0.23 under setting [2].
Turning to LSPDPEERPGAEGAPLLPPPLPPP [ACBD3], the protein stability index under setting [1] worked out at 5.27 ± 0.15 and the protein stability index under setting [2] was 5.32 ± 0.17.
The corresponding values for LTEHKRIHTGKKPHVCSLCGKAFY [ZNF649] are 2.83 ± 0.38 and 3.32 ± 0.56.
On the same counts, the results for LTKTFQGPAVVCGTPTSHVYMFKN [LYSMD4] are 2.45 ± 0.22 and 2.63 ± 0.15.
LTRVLAEMREQYEAMAEKNRRDVE [KRT15] returned a protein stability index under setting [1] of 3.47 ± 0.31 and a protein stability index under setting [2] of 3.93 ± 0.28.
With LTVRKSQSEPSEQDGVLDLSTKKS [LCOR], the protein stability index by setting is: under setting [1], 5.15 ± 0.25; under setting [2], 5.22 ± 0.24.
